In IntAct's records for PubMed 21784248:

B1: Nucleoporin NIC96 (Chaetomium thermophilum (strain DSM 1495 / CBS 144.50 / IMI 039719)), G0S024 (parent)
chain: MSLIGNGPSVPPSSTKASLFSSPTTSANPTGGLFGSTTGGSSLFAPKTAGSTTTSTTQPTSTTGLGTSLFGTSTTANTQNTANAARPSLFTAGNSIFGTSTTQPGLGASSLTTAATSNQQAQQQQQQRQQHQQAAPTGALFDSLLARNKKQAEGETALGELPSLQLGLADLRQRLRKLGPSSDRPIEPGKAHYFLAASGVDPGAAVRDLGALGLQAKTERTAASVGPAAGPSGVSTTGFGTGLGEVDVDTYLSNLQTKTTLSMIADGLERSARDFDAFLEENVTLEWEAQRKRIYQHFGIKPRDSSVAGTTTAQPTATPSKDGQGTFGRSRRKASQPPPGERPAQRMSILGRSTMMRSVIGTPTRIGAHAPEFSDVEARKDSSGAAVASVDDRFLREKQAKLAEKIREFNDARQRGTPFYICRDLADLESKSGDRHGPHIVEAYRAVMEMVGEHPDAGEAPRERQFAKMYLDPNTQSANALAMRKQILKGATTFLEKQFWNEVNSLIAKYPQDANLGGLPDVVSKIKAYIRLRIARKTLVPDNVELQQINGEYVWAIVFYLLRAGFVTEAAQYVNSNQAHFRAIDRTFSGYINSYASSEERRLKRQMQDRCMSEYNQRIRNAPEGSIDPFRMACYKIIGRCDLSNRSLDGLQTDVNDWIWLQFNLARETDRSLELAGESYGLAELQASIREIGLKHFPKTAAEDTNGSFGMFFYLQILAGMFEQAIAYLYPFSYVDAVHFAIALTYYGLLRPVDAASAGNELLSHNTRSMPQINFGRMLGYYTRDFRAANPAAAVDYLVLICLNADEAAGGQQAQAALCHEALRELVLESREFSRLIGDIRPDGRRIRGVIEERGPLIALGQEDDFIRTITLQAASFADDNGRTTDAVLLYHLAEDYDTVVSIVSRALSEAISLEIGEDPMRLIPVKPRVTNAEGQVEEAAPGSSLSLAAIDDPVELAKAMMGMYERDHMFWQKIREPNRVACSVLLQMADIKSLVEQGRWAECLDKIRALDILPLTARGDPGTIRSYAARFPSLAQPVAINVPNLLMWTVLCCMRQRERLAGGQFAGNESTARLMMDELKQMTVDLMAYTSQLRYRLPPHLHEALARASAD

Variants of: B1
Settings: with nu192_chatd NUP192, G0S4T0
nu192_chatd NUP192, G0S4T0, sequence (G0S4T0 whole entry): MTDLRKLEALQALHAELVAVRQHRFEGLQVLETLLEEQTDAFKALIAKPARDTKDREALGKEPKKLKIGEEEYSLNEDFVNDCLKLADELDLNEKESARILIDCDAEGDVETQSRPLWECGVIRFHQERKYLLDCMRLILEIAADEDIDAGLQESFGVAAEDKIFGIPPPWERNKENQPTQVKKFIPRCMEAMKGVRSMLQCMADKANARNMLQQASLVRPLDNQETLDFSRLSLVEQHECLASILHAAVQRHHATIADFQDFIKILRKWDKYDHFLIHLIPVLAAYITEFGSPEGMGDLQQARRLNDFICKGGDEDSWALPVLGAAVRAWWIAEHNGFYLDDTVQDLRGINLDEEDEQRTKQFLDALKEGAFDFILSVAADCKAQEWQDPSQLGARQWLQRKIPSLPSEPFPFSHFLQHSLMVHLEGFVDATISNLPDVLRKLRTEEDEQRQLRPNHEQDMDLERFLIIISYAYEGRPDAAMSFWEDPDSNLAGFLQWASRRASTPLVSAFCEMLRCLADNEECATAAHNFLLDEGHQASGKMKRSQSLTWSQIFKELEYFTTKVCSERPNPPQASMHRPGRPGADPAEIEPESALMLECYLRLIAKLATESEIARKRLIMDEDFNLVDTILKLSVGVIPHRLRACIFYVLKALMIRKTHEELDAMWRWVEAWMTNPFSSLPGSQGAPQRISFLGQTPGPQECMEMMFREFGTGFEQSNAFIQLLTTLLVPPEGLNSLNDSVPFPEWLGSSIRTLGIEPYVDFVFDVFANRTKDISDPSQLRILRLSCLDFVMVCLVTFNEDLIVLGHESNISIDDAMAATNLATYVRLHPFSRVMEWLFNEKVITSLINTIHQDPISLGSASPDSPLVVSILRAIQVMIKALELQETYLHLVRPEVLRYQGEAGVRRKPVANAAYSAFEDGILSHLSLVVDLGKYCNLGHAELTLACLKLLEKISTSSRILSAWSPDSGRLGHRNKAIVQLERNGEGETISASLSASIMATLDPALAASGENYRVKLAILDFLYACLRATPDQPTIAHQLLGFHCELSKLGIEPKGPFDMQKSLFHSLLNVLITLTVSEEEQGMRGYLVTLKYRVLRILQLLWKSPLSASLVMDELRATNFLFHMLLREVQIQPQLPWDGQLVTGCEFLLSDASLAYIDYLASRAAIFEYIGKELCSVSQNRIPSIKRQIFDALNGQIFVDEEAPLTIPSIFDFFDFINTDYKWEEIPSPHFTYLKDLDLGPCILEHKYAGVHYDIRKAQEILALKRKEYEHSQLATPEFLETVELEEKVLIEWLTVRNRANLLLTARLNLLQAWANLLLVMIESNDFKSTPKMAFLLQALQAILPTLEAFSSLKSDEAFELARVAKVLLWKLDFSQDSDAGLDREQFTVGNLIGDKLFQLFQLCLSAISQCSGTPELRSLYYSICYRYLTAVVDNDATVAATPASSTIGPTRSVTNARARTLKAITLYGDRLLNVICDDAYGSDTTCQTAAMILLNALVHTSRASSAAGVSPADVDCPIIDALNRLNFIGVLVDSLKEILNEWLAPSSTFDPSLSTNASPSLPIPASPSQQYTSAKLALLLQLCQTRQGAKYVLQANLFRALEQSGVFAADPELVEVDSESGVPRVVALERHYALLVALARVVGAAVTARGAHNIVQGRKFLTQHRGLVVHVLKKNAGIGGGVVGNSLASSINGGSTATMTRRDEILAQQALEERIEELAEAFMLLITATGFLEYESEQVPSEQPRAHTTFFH

Variant	effect of a mutation on the interaction
Y251A;I264A;F275A;W287A	decreasing interaction
